Test results as given in publication PMC3829608 (Molecular cancer therapeutics, 2012).
“Also recorded” adds a separate entry of the source.

Legend:
[1] = Live animal FMT imaging of orthotopic Gli36Δ5 brain tumors; assay type: in vivo, mice; details: mouse, in vivo, iv, 1 nmol/g
[2] = tested on: Gli36Δ5 orthotopic brain tumors; assay: as above; assay type: in vivo, mice; details: representative FMT 3-dimensional reconstruction, matching ROIs, 1 nmol/g
[3] = Live animal FMT imaging of orthotopic U87-MG brain tumors; assay type: in vivo, mice; details: mouse, in vivo, iv, 1 nmol/g
[4] = tested on: U87-MG orthotopic brain tumors; assay: as above; assay type: in vivo, mice; details: representative FMT 3-dimensional reconstruction, matching ROIs, 1 nmol/g
[5] = tested on: A431 cells; assay: Uptake in A431 cells with EGF stimulation; assay type: cell-based, human; details: A431 cells in the presence of the EGF ligand
[6] = target: T1, EGFR (Homo sapiens, UniProt P00533); assay: Saturation binding assay on Gli36Δ5 cells
[7] = target: T1, EGFR; details: radioligand binding assays; cited from earlier work

For `CC[C@H](C)[C@H](NC(=O)[C@@H](NC(=O)[C@H](CC(N)=O)NC(=O)[C@H](CCC(N)=O)NC(=O)[C@@H]1CCCN1C(=O)[C@@H](NC(=O)[C@H](Cc1ccc(O)cc1)NC(=O)CNC(=O)[C@H](Cc1ccc(O)cc1)NC(=O)[C@H](Cc1c[nH]c2ccccc12)NC(=O)[C@H](Cc1c[nH]cn1)NC(=O)[C@H](Cc1ccc(O)cc1)NC(=O)COCCOCCNC(=O)CCCCCN1C(=CC=CC=CC2=[N+](CC)c3ccc4c(S(=O)(=O)[O-])cc(S(=O)(=O)O)cc4c3C2(C)C)C(C)(C)c2c1ccc1c(S(=O)(=O)O)cc(S(=O)(=O)O)cc21)[C@@H](C)O)C(C)C)C(N)=O` [Compound 2], which tissue uptake dose at 1 h [1] is on record?
Its tissue uptake dose at 1 h is 1.1 %ID.

What about the “Amount of fluorescence in ROI, Gli36Δ5” value [2] of the same molecule?
The value was 9,271 nmol/L.

And the tissue uptake dose at 1 h [3]?
The tissue uptake dose at 1 h was 0.27 %ID.

And the “Amount of fluorescence in ROI, U87-MG” value [4]?
Its value is 1,608 nmol/L.

And the “Uptake in A431 cells on stimulation with EGF” value [5]?
Its value is “increasing fluorescence; also recorded: increased the level of uptake”.

Which “Affinity for the cells (in words)” value [6] does the source give for Cy5.5-YHWYGYTPQNVI-amide [Compound 1] here?
Its value is “micromolar range”.

With “Cy5.5-(AEEA)3-YHWYGYTPQNVI-amide [Compound 4]” as the molecule, how does the “Affinity for the cells (in words)” value [6] read?
The value was “micromolar range”.

Which “Affinity for the cells (in words)” value [6] does the source give for “Cy5.5-(AEEA)2-YHWYGYTPQNVI-amide [Compound 3]” here?
Its value is “micromolar range”.

For YHWYGYTPQNVI [GE11], which “Binding affinity for EGFR (in words)” value [7] is on record?
Its value is “nanomolar range”.
